2 compounds from PMC4560423, “Identification and Characterization of a Novel Galactofuranose-Specific β-D-Galactofuranosidase from Streptomyces Species” (PLoS ONE, 2015) can be followed below.

Series [1] relates to O=[N+]([O-])c1ccc(O[C@@H]2O[C@@H]([C@H](O)CO)[C@H](O)[C@H]2O)cc1. Kind of series: purified protein. Conditions: 37 °C, acetate buffer pH 4.5 (general assay; pH of the kinetics not stated).
The target of series [2] is T1, ORF1110 Galf-ase (ORF1110 protein) (Streptomyces sp. JHA19, UniProt A0A0K2SRV3).
T1 construct: recombinant from E. coli BL21(DE3)CodonPlus, pET50b, N-terminal 2xHis6 and Nus tags (cut by HRV3C for TLC only); ORF 786 aa; GH2 with C-terminal AbfB domain
T1 sequence (A0A0K2SRV3 46-786): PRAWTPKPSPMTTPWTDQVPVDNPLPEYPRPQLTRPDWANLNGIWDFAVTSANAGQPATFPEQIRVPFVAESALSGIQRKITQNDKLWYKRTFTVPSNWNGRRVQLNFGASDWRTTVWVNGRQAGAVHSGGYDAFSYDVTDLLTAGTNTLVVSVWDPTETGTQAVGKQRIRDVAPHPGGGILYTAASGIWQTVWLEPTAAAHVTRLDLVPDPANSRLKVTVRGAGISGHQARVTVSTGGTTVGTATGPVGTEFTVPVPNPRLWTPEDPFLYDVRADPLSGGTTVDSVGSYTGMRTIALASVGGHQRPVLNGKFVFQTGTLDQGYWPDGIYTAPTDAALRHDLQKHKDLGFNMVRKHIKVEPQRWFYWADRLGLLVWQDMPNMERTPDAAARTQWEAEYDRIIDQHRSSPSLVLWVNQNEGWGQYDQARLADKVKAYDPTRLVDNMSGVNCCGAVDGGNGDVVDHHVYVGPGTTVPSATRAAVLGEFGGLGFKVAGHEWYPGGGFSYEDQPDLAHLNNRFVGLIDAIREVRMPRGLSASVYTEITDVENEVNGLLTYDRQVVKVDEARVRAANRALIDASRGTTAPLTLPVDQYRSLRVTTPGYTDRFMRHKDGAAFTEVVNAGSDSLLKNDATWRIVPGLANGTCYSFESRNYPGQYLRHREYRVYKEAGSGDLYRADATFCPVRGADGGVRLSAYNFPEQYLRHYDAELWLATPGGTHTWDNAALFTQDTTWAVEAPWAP
Kind of series: inhibition of pNP-β-D-Galf hydrolysis, pNP absorbance at […] nm. The class given is biochemical.

One may read the Km as the substrate concentration at which the rate is half of its maximum. Regarding “ORF1110 Galf-ase (ORF1110 protein) (Streptomyces sp. JHA19)”, the Km in series [1] stood at 4.4 mM.

As a reminder, the Ki is a dissociation constant, usually derived from enzyme kinetics or from competition with a known ligand. A high value points to lower affinity. In the case of `O=C1O[C@@H](CO)[C@H](O)[C@H]1O` [L-arabino-1,4-lactone], in series [2], affinity was put at a Ki of 51 mM.
